Experimental findings from US20150299268A1 are described below.

The target of one test is FLSC R/T (HIV-1) (UniProt P01730). The test can be described thus: ELISA. Background: ELISA stands for enzyme-linked immunosorbent assay.
The target in another test is gp120-b12-ScFV. Put plainly: ELISA.
The target in the next test is gp120-JR4-ScFV. Put plainly: ELISA.
For test [1], the target named is BaL-gp120 (HIV-1 BaL). Put plainly: ELISA.
The next test deals with gp120-JR48.1-ScFV. The test can be described thus: ELISA.
In the next test the target is gp120-VRC01-ScFV. Put plainly: ELISA.
The target of a further test is core-D7 (HIV-1). The test can be described thus: capture ELISA.
Test [2] deals with BaL-gp120-Y40A (HIV-1 BaL). The test can be described thus: capture ELISA.
For test [3], the target named is BaL-gp120-H105A (HIV-1 BaL). Put plainly: capture ELISA.
The target in test [4] is BaL-gp120-D57AD78A (HIV-1 BaL). The test can be described thus: capture ELISA.
Test [5] deals with BaL-gp120-K500A (HIV-1 BaL). Put plainly: capture ELISA.
For test [6], the target named is BaL-gp120-D57AD62A (HIV-1 BaL). Put plainly: capture ELISA.
For test [7], the target named is BaL-gp120-W35A (HIV-1 BaL). The test can be described thus: capture ELISA.
Test [8] addresses BaL-gp120-R476AR480A (HIV-1 BaL). Put plainly: capture ELISA.
Test [9] concerns the target BaL-gp120-dV3 (HIV-1 BaL). Put plainly: capture ELISA.
Test [10] deals with BaL-gp120-S200A (HIV-1 BaL). Put plainly: capture ELISA.
The target of test [11] is BaL-gp120-T162A (HIV-1 BaL). The test can be described thus: capture ELISA.
For test [12], the target named is BaL-gp120-E47A (HIV-1 BaL). The test can be described thus: capture ELISA.
For test [13], the target named is BaL-gp120-D62A (HIV-1 BaL). Put plainly: capture ELISA.
Test [14] deals with BaL-gp120-E106AD107A (HIV-1 BaL). Put plainly: capture ELISA.
Test [15] has as its target BaL-gp120-Y39A (HIV-1 BaL). The test can be described thus: capture ELISA.
For test [16], the target named is BaL-gp120-R58AK59A (HIV-1 BaL). Put plainly: capture ELISA.
Test [17] deals with BaL-gp120-K33A (HIV-1 BaL). The test can be described thus: capture ELISA.
Test [18] has as its target BaL-gp120-dV2 (HIV-1 BaL). The test can be described thus: capture ELISA.
In test [19] the target is BaL-gp120-P76A (HIV-1 BaL). The test can be described thus: capture ELISA.
Test [20] deals with BaL-gp120-P493A (HIV-1 BaL). Put plainly: capture ELISA.
The target in test [21] is BaL-gp120-I491A (HIV-1 BaL). The test can be described thus: capture ELISA.
The target of test [22] is BaL-gp120-mV3 (HIV-1 BaL). Put plainly: capture ELISA.
In test [23] the target is BaL-gp120-D57A (HIV-1 BaL). Put plainly: capture ELISA.
Test [24] concerns the target BaL-gp120-G495A (HIV-1 BaL). The test can be described thus: capture ELISA.
The target in a further test is core-V1V2-D7 (HIV-1). The test can be described thus: capture ELISA.
For test [25], the target named is BaL-gp120-V496A (HIV-1 BaL). Put plainly: capture ELISA.
The target in test [26] is BaL-gp120-T499A (HIV-1 BaL). Put plainly: capture ELISA.
Another test addresses FLSC (HIV-1) (UniProt P01730). Put plainly: capture ELISA.
Test [27] has as its target BaL-gp120 (HIV-1 BaL). Put plainly: capture ELISA.
Another test addresses core-V3-D7 (HIV-1). Put plainly: capture ELISA.
Test [28] deals with BaL-gp120-E31A (HIV-1 BaL). The test can be described thus: capture ELISA.
Test [29] has as its target BaL-gp120-I420R (HIV-1 BaL). The test can be described thus: capture ELISA.
For test [30], the target named is BaL-gp120-Y61A (HIV-1 BaL). Put plainly: capture ELISA.
The target of test [31] is BaL-gp120-F53A (HIV-1 BaL). The test can be described thus: capture ELISA.
Test [32] addresses BaL-gp120-V75A (HIV-1 BaL). The test can be described thus: capture ELISA.
For test [33], the target named is BaL-gp120-T455A (HIV-1 BaL). The test can be described thus: capture ELISA.
Test [34] has as its target BaL-gp120-E492A (HIV-1 BaL). The test can be described thus: capture ELISA.
The target in test [35] is BaL-gp120-E32A (HIV-1 BaL). The test can be described thus: capture ELISA.
Test [36] has as its target BaL-gp120-W45A (HIV-1 BaL). The test can be described thus: capture ELISA.
The target of test [37] is BaL-gp120-S334A (HIV-1 BaL). Put plainly: capture ELISA.
The target in test [38] is BaL-gp120-S158A (HIV-1 BaL). The test can be described thus: capture ELISA.
Test [39] deals with BaL-gp120-I423A (HIV-1 BaL). The test can be described thus: capture ELISA.
Test [40] deals with BaL-gp120-R476A (HIV-1 BaL). The test can be described thus: capture ELISA.
Test [41] addresses BaL-gp120-V68A (HIV-1 BaL). The test can be described thus: capture ELISA.
Test [42] deals with BaL-gp120-D368R (HIV-1 BaL). Put plainly: capture ELISA.
Test [43] addresses BaL-gp120-dV1 (HIV-1 BaL). Put plainly: capture ELISA.
Test [44] concerns the target BaL-gp120-K487AK490A (HIV-1 BaL). The test can be described thus: capture ELISA.
Test [45] addresses BaL-gp120-K46A (HIV-1 BaL). Put plainly: capture ELISA.
Test [46] has as its target BaL-gp120-V44A (HIV-1 BaL). Put plainly: capture ELISA.
For test [47], the target named is BaL-gp120-E47AE91A (HIV-1 BaL). Put plainly: capture ELISA.
Test [48] has as its target BaL-gp120-P498A (HIV-1 BaL). The test can be described thus: capture ELISA.
The target of test [49] is BaL-gp120-L494A (HIV-1 BaL). The test can be described thus: capture ELISA.
In test [50] the target is BaL-gp120-D78A (HIV-1 BaL). The test can be described thus: capture ELISA.
Test [51] concerns the target BaL-gp120-T303A (HIV-1 BaL). The test can be described thus: capture ELISA.
The target of test [52] is BaL-gp120-W69A (HIV-1 BaL). The test can be described thus: capture ELISA.

PGT128 (antibody): the Fold of Ab needed for ELISA binding OD equal to half max on gp120 in the test with FLSC R/T (HIV-1) came to 5.07 fold; with gp120-b12-ScFV it was 0.09 fold; in the test with gp120-JR4-ScFV, 0.13 fold; with BaL-gp120 (HIV-1 BaL) [1], 1 fold; with gp120-JR48.1-ScFV, 0.14 fold; in the test with gp120-VRC01-ScFV, 0.23 fold.

For PG04 (antibody), the Fold of Ab needed for ELISA binding OD equal to half max on gp120 with gp120-b12-ScFV was greater than 100 fold; with gp120-JR4-ScFV, 0.26 fold; in the test with BaL-gp120 (HIV-1 BaL) [1], 1 fold; in the test with gp120-JR48.1-ScFV, 0.36 fold.

Regarding PG9 (antibody), the Fold of Ab needed for ELISA binding OD equal to half max on gp120 came to 8.02 fold in the test with FLSC R/T (HIV-1); 0.06 fold with gp120-b12-ScFV; 0.02 fold with gp120-JR4-ScFV; 1 fold with BaL-gp120 (HIV-1 BaL) [1]; 0.07 fold with gp120-JR48.1-ScFV; 0.09 fold with gp120-VRC01-ScFV.

For A32 (antibody), the Fold of Ab needed for ELISA binding OD equal to half max on gp120 in the test with FLSC R/T (HIV-1) was 0.04 fold; in the test with gp120-b12-ScFV, 0.06 fold; with gp120-JR4-ScFV, greater than 100 fold; with BaL-gp120 (HIV-1 BaL) [1] it was 1 fold; in the test with gp120-JR48.1-ScFV it was 0.1 fold; in the test with gp120-VRC01-ScFV, 0.2 fold.

For 2G12 (antibody), the % Binding amounted to 100% with core-D7 (HIV-1); 93% in test [2]; 89% in test [3]; 95% in test [4]; 92% in test [5]; 105% in [6]. Also, the % Binding was determined as 99% in test [7]; 83% in test [8]; 100% in [9]; 92% in test [10]; 87% in test [11]; 96% in [12]. The % Binding in [13] was determined as 86%; in test [14], 79%; in test [15], 89%; in test [16], 88%; in [17], 83%; in test [18], 82%. For the same substance, the % Binding in test [19] was 90%; in test [20] it was 93%; in test [21] it was 92%; in [22], 100%; in [23], 91%; in test [24], 93%. Further, the % Binding in the test with core-V1V2-D7 (HIV-1) was found to be 100%; in test [25], 96%; in test [26] it was 100%; with FLSC (HIV-1), 104%; with BaL-gp120 (HIV-1 BaL) [27] it was 100%; with core-V3-D7 (HIV-1), 86%. Besides, the % Binding in test [28] was determined as 80%; in test [29] it was 93%; in test [30], 81%; in test [31], 99%; in [32], 89%; in test [33], 87%. The % Binding in test [34] was determined as 93%; in [35], 93%; in test [36], 92%; in test [37] it was 16%; in [38], 80%; in test [39], 94%. Also, the % Binding in test [40] worked out at 98%; in test [41], 82%; in test [42], 82%; in test [43] it was 93%; in test [44] it was 83%; in test [45], 92%. Moreover, the % Binding in test [46] worked out at 93%; in test [47] it was 86%; in [48], 93%; in [49], 79%; in test [50], 87%; in test [51], 88%. Further, in test [52], the % Binding stood at 87%. The Fold of Ab needed for ELISA binding OD equal to half max on gp120 stood at 0.91 fold with FLSC R/T (HIV-1); 0.56 fold with gp120-b12-ScFV; 0.61 fold in the test with gp120-JR4-ScFV; 1 fold in the test with BaL-gp120 (HIV-1 BaL) [1]; 0.58 fold in the test with gp120-JR48.1-ScFV; 0.66 fold with gp120-VRC01-ScFV.
